Reference: publication PMC12618258, “The human ribosome modulates multidomain protein biogenesis by delaying cotranslational domain docking” (Nature Structural & Molecular Biology, 2025)

Biological target: the molecule itself
Assay: SEC-MALS; 100 μl of Ns at 0.1 or 0.2 mg/ml (~5 or 10 µM) on Superdex 200 10/30 increase GL; 20 mM HEPES pH 7.5, 100 mM KCl, 5 mM magnesium acetate, 200 mM arginine-HCl, 1 mM DTT, 2 mM sodium azide

B1: isolated Ns (isoNs, residues 1–190) of firefly luciferase (domain or fragment, UniProt P08659 1-190, looked up)
chain: MEDAKNIKKGPAPFYPLEDGTAGEQLHKAMKRYALVPGTIAFTDAHIEVNITYAEYFEMSVRLAEAMKRYGLNTNHRIVVCSENSLQFFMPVLGALFIGVAVAPANDIYNERELLNSMNISQPTVVFVSKKGLQKILNVQKKLPIIQKIIIMDSKTDYQGFQSMYTFVTSHLPPGFNEYDFVPESFDRDK
notes: firefly luciferase (FLuc, 550 residues), UniProt Q27758_PHOPY, residues 1-190 (Ns subdomain), off the ribosome; The truncations carried an N-terminal His-SUMO tag; The printed monomer mass of ~21.5 kDa fits the cleaved fragment; source: E. coli BL21, purified (HisTrap, Ulp1 cleavage, reverse IMAC, Superdex gel filtration); not shown: His, N-terminal, cleaved; SUMO, N-terminal, cleaved
  stoichiometry N: 2
